Biological target: T1, B-cell maturation antigen (BCMA) (human, UniProt Q02223 1-184)
T1 construct: whole, on cells
T1 sequence (looked up): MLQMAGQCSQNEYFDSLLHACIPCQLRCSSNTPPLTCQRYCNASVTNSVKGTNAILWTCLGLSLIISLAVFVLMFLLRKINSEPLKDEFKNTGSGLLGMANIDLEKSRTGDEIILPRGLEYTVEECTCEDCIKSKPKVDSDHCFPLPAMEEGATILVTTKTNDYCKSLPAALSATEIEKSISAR
Test: Flow cytometric trogocytosis assay: 1:1 co-culture of CAR T cells with KMS-12-BM for 0, 1, 2 and 4 h. BCMA loss from the tumour cells (upper panel) and BCMA gain on CAR T cells (lower panel). No concentration axis.

B1: 22-BBζ CAR (CD22-BBζ-DsRed, m971 CD22-specific scFv) (other)
chain: QVQLQQSGPGLVKPSQTLSLTCAISGDSVSSNSAAWNWIRQSPSRGLEWLGRTYYRSKWYNDYAVSVKSRITINPDTSKNQFSLQLNSVTPEDTAVYYCAREVTGDLEDAFDIWGQGTMVTVSSGGGGSDIQMTQSPSSLSASVGDRVTITCRASQTIWSYLNWYQQRPGKAPNLLIYAASSLQSGVPSRFSGRGSGTDFTLTISSLQAEDFATYYCQQSYSIPQTFGQGTKLEIKAAAPTTTPAPRPPTPAPTIASQPLSLRPEACRPAAGGAVHTRGLDFACDIYIWAPLAGTCGVLLLSLVITLYCNKRGRKKLLYIFKQPFMRPVQTTQEEDGCSCRFPEEEEGGCELRVKFSRSADAPAYQQGQNQLYNELNLGRREEYDVLDKRRGRDPEMGGKPRRKNPQEGLYNELQKDKMAEAYSEIGMKGERRRGKGHDGLYQGLSTATKDTYDALHMQALPPR
notes: Chimeric antigen receptor on human T cells
  binding result: no binding
